Assay [1] deals with T1, human full-length Galectin-1 (human, UniProt P09382 2-135).
T1 construct: full-length; Histidine-tagged; also called Hu-Gall; Gall
Briefly: ELISA on His-tag-immobilised antigen (3 µg/mL), periplasmic extract with scFv, anti-scFvTag.HRP, OD 450 nm. Here is the method: (§1) Hu-Gal3-FL, Hu-Gal3-CRD, m-Gal3-FL, Hu-Gall and Hu-Gal7 were immobilized at 3 μg/mL final concentration through their histidine tag on functionalized microplates following internal process. Periplasmic extracts containing scFvs were added into the wells and detected with an anti-scFvTag.HRP (horseradish peroxidase) antibody. Rabbit antibodies directed against Gal3 (ab53082-abcam reference), Gall (ab25138-abcam reference), and Gal7 (ab108623-abcam reference) were used at 5 μg/mL as antigen-coating positive controls and detected with an anti-rabbit.HRP secondary antibody (7074S-Cell Signaling reference).

The target of assay [2] is T2, human full-length Galectin-7 (human, UniProt P47929 1-136).
T2 construct: full-length; Histidine-tagged; also called Hu-Gal7; Gal7
T2 sequence (P47929 whole entry): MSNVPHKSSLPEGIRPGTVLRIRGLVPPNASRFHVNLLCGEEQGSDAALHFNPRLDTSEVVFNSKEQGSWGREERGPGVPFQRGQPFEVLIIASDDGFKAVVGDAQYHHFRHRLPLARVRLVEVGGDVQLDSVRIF
The description is as above. The method, then:
as §1

Assay [3] addresses T3, full length human Galectin-3 (human, UniProt P17931 2-250).
T3 construct: Printed as 'full length'; recombinant, immobilized through a histidine tag; also called hu-Gal3-FL; Hu-Gal3-FL
Briefly: SPR Biacore T-200, antibody captured by anti-human Fc, Gal3 in solution. The method, then:
(§2) The CM5 sensor surface was first immobilized with an anti-human Fc mAb using a standard protocol. The entire sensor surface was first activated by injecting a 1:1 (v/v) mixture of 400 mM EDC and 100 mM NHS at a flow rate of 10 μL/minute for 7 minutes. Monoclonal anti-human Fc antibody (Millipore AP113), 25 μg/mL in Na acetate pH5, 360 s were flowed at 10 μL/minute to reach 10000 RU on both flow cells followed by the injection of 1 M ethanolamine, pH8.5 for 7 minutes at a flow rate of 10 μL/minute. During the entire immobilization procedure, HBS-P was used as the running buffer.
(§3) Antibody samples were prepared at 5 μg/ml and were injected for 30 seconds at 10 μL/minute. In general, 400 to 680 resonance units of antibodies were captured on the chip.

In assay [4] the target is T4, full length mouse Galectin-3 (mouse, UniProt P16110 2-264).
T4 construct: Printed as 'full length'; recombinant, immobilized through a histidine tag; also called m-Gal3-FL; murine Gal3
T4 sequence (P16110 2-264 limits assumed): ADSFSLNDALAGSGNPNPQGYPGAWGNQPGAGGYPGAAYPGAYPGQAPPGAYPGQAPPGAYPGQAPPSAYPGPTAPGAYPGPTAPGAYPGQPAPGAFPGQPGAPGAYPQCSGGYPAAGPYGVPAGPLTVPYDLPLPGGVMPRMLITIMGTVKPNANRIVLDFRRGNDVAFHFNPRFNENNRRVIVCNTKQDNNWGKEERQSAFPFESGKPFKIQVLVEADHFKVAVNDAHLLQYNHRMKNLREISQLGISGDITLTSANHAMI
The assay is described as above. Here is the method:
as §2, §3

Assay [5] has as its target T1, human full-length Galectin-1. Briefly: ELISA on immobilised antigen (3 µg/mL), purified IgG at 15-20 µg/mL, anti-Fab.HRP, OD 450 nm. Here is the method: (§4) IgG specificity to Gal3 was tested by checking the absence of binding on human Gall and Gal7 by ELISA.
(§5) Hu-Gall and Hu-Gal7 were immobilized at 3 μg/mL. Purified IgGs were added into the wells (15-20 μg/mL final concentration) and detected with an anti-Fab.HRP antibody. Rabbit antibodies directed against Gall (Abcam ab25138 reference) and Gal7 (Abcam ab108623 reference) were used at 5 μg/mL as antigen-coating positive controls and detected with an anti-rabbit.HRP secondary antibody (7074S-Cell Signaling reference).

Assay [6] has as its target T2, human full-length Galectin-7. The assay is described as above. The method, then: as §4, §5

Positions count from the first letter of the chain named.

T3 sequence (P17931 2-250 limits assumed): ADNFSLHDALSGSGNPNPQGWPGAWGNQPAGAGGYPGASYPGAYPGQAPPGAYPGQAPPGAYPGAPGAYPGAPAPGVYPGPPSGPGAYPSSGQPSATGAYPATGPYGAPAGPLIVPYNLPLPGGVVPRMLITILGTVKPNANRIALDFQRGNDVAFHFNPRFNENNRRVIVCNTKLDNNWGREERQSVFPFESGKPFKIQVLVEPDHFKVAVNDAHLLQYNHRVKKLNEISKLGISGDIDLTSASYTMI
T1 sequence (P09382 2-135 limits assumed): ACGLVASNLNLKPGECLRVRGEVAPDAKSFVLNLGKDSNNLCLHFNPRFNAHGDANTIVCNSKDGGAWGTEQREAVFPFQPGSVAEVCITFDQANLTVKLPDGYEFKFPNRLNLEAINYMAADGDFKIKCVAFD

B1: anti-Gal3 scFv G03 (scFv, V domains shown, not shown: small tags and cut ends)
VH: EVQLVESGGSLVKPGGSLRLSCAASGFTFSNYAMNWVRQAPGKGLEWISSIYGSSRYIYYADFVKGRFTISRDNAKNSLYLQMNSLRAEDTAVYYCVRSYNGGMDVWGRGTLVTVSS
VL: QSVLTQPASVSGSPGQSITISCAGTSSDVGGYYNVAWYQQHPGKAPKLMIYYDSYRPSGVSNRFSGSKSGNTASLTISGLQAEDEADYYCSSSTGYSTRVFGGGTKLEIK
notes: Periplasmic extract from E. coli; also called G03 (scFv)
B1: the binding result in assay [1] and in assay [2] was “no binding” throughout.

B2: anti-Gal3 scFv E02 (scFv, V domains shown, not shown: small tags and cut ends)
VH: EVQLVESGGSLVKPGGSLRLSCAASGFTFSNYAMNWVRQAPGKGLEWISSIYGSSRSISYADFVKGRFTISRDNAKNSLYLQMNSLRAEDTAVYYCVRSSYNYYYGNGMDVWGRGTLVTVSS
VL: B1 VL with Y33G, N34G, A36S, G95S
notes: Periplasmic extract from E. coli; also called E02 (scFv)
Turning to B2, the binding result in assay [1] and in assay [2] was “no binding” each time.

B3: anti-Gal3 scFv H10 (scFv, V domains shown, not shown: small tags and cut ends)
VH: EVQLVESGGSLVKPGGSLRLSCAASGFTFSNYYMNWVRQAPGKGLEWISYINGASRDISYADFVKGRFTISRDNAKNSLYLQMNSLRAEDTAVYYCVRSSYGYSNYGSGMDVWGRGTLVTVSS
VL: B1 VL with Y32S, Y52N, S54A, Y55N, S93N, G95A, Y96D
notes: Periplasmic extract from E. coli; also called H10 (scFv)
In the case of B3, the binding result in assay [1] and in assay [2] was “no binding” each time.

B4: anti-Gal3 variant antibody E07-G1 (antibody, V domains shown)
VH: B1 VH with S10G, A33N, S50N, F63S, N101Y
VL: QSALTQPRSVSGSPGQSVTISCTGTSSDVGGYYSVSWYQQHPGKAPKLMIYYDSNRPSGVPDRFSGSKSGNTASLTISGLQAEDEADYYCSSYTGYSTRVFGQGTKLEIK
notes: Variant of E07 with framework mutations to germline; captured by anti-human Fc in SPR
As to B4, binding in assay [3] was characterised by a dissociation constant (Kd) of 12 nM.

B5: anti-Gal3 variant antibody D06-G2 (antibody, V domains shown)
VH: B1 VH with S10G, A33N, I48V, F63S, Y100G, N101Y
VL: B1 VL with V3A, A23T, Y33N, N34G, A36S, S93G, G95D, G103Q
notes: Variant of D06 with framework mutations to germline; captured by anti-human Fc in SPR
In assay [3], B5 had a Kd of 6.8 nM. This Kd lies about 1.8-fold lower than the previous one.

B6: anti-Gal3 scFv E01 (scFv, V domains shown, not shown: small tags and cut ends)
VH: EVQLVESGGSLVKPGGSLRLSCAASGFTFSNNYMNWVRQAPGKGLEWISNINGASRNIAYADFVKGRFTISRDNAKNSLYLQMNSLRAEDTAVYYCVRSSDYDGGMDVWGRGTLVTVSS
VL: B1 VL with Y32N, Y33S, N34Y, A36S, G95Y, Y96G
notes: Periplasmic extract from E. coli; also called E01 (scFv)
B6: the binding result in assay [1] and in assay [2] was “no binding” in each case.

B7: anti-Gal3 variant antibody E07-G2 (antibody, V domains shown)
VH: B1 VH with S10G, A33N, I48V, S50N, F63S, N101Y
VL: B4 VL
notes: as for B4
For the molecule B7, the affinity in assay [3], expressed as Kd, was 15 nM.

B8: anti-Gal3 scFv B12 (scFv, V domains shown, not shown: small tags and cut ends)
VH: EVQLVESGGSLVKPGGSLRLSCAASGFTFSNDDMNWVRQAPGKGLEWISSIDGSSRSIYYADFVKGRFTISRDNAKNSLYLQMNSLRAEDTAVYYCVRSSGYSGGGMDVWGRGTLVTVSS
VL: B1 VL with Y32S, Y52S, S93Y, G95S, Y96N, T98A
notes: Periplasmic extract from E. coli; also called B12 (scFv)
As for B8, the binding result in assay [1] and in assay [2] was “no binding” throughout.

B9: anti-Gal3 antibody B12 (antibody, V domains shown)
VH: B8 VH
VL: B1 VL with Y32S, Y52S, S93Y, G95S, Y96N, T98A
In the case of B9, the Kd was 8.8 nM in assay [3] and 3.47 nM in assay [4]. Further, the binding result in assay [5] and in assay [6] was “no binding (tested: 15-20 µg/mL)” each time.

B10: anti-Gal3 scFv D11 (scFv, V domains shown, not shown: small tags and cut ends)
VH: B1 VH with A33N, Y100S, N101Y
VL: B1 VL with Y32S, S93Y
notes: Periplasmic extract from E. coli; also called D11 (scFv)
As to B10, the binding result in assay [1] and in assay [2] was “no binding” each time.

B11: anti-Gal3 scFv D06 (scFv, V domains shown, not shown: small tags and cut ends)
VH: B1 VH with A33N, Y100G, N101Y
VL: B1 VL with Y33N, N34G, A36S, S93G, G95D
notes: Periplasmic extract from E. coli HB2151 (pHEN phagemid); also called D06 (scFv)
Regarding B11, the binding result in assay [1] and in assay [2] was “no binding” in each case.

B12: anti-Gal3 scFv E12 (scFv, V domains shown, not shown: small tags and cut ends)
VH: B1 VH with Y57S, Y100N, G102A
VL: B1 VL with N34D, A36S, S93Y, G95S
notes: Periplasmic extract from E. coli; also called E12 (scFv)
Regarding B12, the binding result in assay [1] and in assay [2] was “no binding” throughout.

B13: anti-Gal3 antibody E12 (antibody, V domains shown)
VH: B1 VH with Y57S, Y100N, G102A
VL: B1 VL with N34D, A36S, S93Y, G95S
On to B13, for which the Kd in assay [3] was 6.64 nM; in assay [4] it was 7.7 nM. The binding result in assay [5] and in assay [6] was “no binding (tested: 15-20 µg/mL)” throughout.

B14: anti-Gal3 variant antibody D11-G2 (antibody, V domains shown)
VH: B1 VH with S10G, A33N, I48V, F63S, Y100S, N101Y
VL: B1 VL with V3A, A23T, Y32S, S93Y
notes: Variant of D11 with framework mutations to germline; captured by anti-human Fc in SPR
In assay [3], B14 came in with a Kd of 18 nM.

B15: anti-Gal3 variant antibody D11-G1 (antibody, V domains shown)
VH: B1 VH with S10G, A33N, F63S, Y100S, N101Y
VL: B1 VL with V3A, A23T, Y32S, S93Y
notes: as for B14
In the case of B15, in assay [3], the Kd was found to be 15 nM. This Kd and that of the molecule before are within 1.5-fold of each other.

B16: anti-Gal3 scFv H07 (scFv, V domains shown, not shown: small tags and cut ends)
VH: B1 VH with A33N, S50N, Y52D, N101Y
VL: B1 VL
notes: Periplasmic extract from E. coli; also called H07 (scFv)
As to B16, the binding result in assay [1] and in assay [2] was “no binding” throughout.

B17: anti-Gal3 scFv E07 (scFv, V domains shown, not shown: small tags and cut ends)
VH: B1 VH with A33N, S50N, N101Y
VL: B1 VL with N34S, A36S, Y55N, S93Y
notes: Periplasmic extract from E. coli; also called E07 (scFv)
As to B17, the binding result in assay [1] and in assay [2] was “no binding” in each case.

B18: anti-Gal3 variant antibody D06-G1 (antibody, V domains shown)
VH: B1 VH with S10G, A33N, F63S, Y100G, N101Y
VL: B1 VL with V3A, A23T, Y33N, N34G, A36S, S93G, G95D, G103Q
notes: as for B5
In the case of B18, binding in assay [3] was characterised by a dissociation constant (Kd) of 9.6 nM.
